{"source": "paper PMC12258035", "about": "“AcABI5a integrates abscisic acid signaling to developmentally modulate fruit ascorbic acid biosynthesis in kiwifruit”", "key": {"AcABI5a-His [1]": {"target": "T1, AcABI5a-His (Actinidia chinensis? (cv. 'Donghong'), UniProt A0A2R6QW13 1-413)", "T1 sequence": "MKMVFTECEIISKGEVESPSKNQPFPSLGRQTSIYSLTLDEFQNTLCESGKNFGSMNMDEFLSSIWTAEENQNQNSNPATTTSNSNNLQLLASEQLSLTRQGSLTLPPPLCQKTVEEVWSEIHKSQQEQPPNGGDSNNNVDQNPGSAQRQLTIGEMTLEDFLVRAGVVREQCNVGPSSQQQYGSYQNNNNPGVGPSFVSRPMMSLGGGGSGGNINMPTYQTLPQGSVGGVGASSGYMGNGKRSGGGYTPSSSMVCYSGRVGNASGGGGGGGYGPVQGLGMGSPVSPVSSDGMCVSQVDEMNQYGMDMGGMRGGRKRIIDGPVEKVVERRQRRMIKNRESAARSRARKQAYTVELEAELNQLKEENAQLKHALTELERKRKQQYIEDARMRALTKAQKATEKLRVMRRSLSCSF", "test": "EMSA; EMSA in polyacrylamide gels with FAM probes; buffer, salt, pH and temperature not stated (refers to Hou et al. [71])", "conditions": "protein: recombinant; tags: 6xHis at N- and C-terminus (pET-32a); fusion 65 kDa; chain copies: 2; label: FAM (on F strand); blunt"}, "AcABI5a-His [2]": {"target": "T1, AcABI5a-His", "test": "EMSA; unlabeled competitor weakens the band; EMSA in polyacrylamide gels with FAM probes; buffer, salt, pH and temperature not stated (refers to Hou et al. [71])", "conditions": "protein: recombinant; tags: 6xHis at N- and C-terminus (pET-32a); fusion 65 kDa; chain copies: 2; label: FAM (on F strand); blunt"}}, "data": [{"binder": "AcMYBS1 mutant probe (dsDNA) DNA 1: ATATTTTGTTAAAAAAATTAGAAGTTCA DNA 2: TGAACTTCTAATTTTTTTAACAAAATAT", "values": [{"measurement": "binding result", "setting": "AcABI5a-His [1]", "value": "no binding"}]}, {"binder": "AcABI5a promoter mutant probe (dsDNA) DNA 1: GCACCCTTGTAAAAAAAAAATTGTAAGA DNA 2: TCTTACAATTTTTTTTTTACAAGGGTGC", "values": [{"measurement": "binding result", "setting": "AcABI5a-His [1]", "value": "no binding"}]}, {"binder": "AcABI5a promoter G-box probe (dsDNA) DNA 1: GCACCCTTGTAGACGTGAAATTGTAAGA DNA 2: TCTTACAATTTCACGTCTACAAGGGTGC", "values": [{"measurement": "binding result", "setting": "AcABI5a-His [2]", "value": "binds"}]}, {"binder": "AcMYBS1 promoter G-box probe (dsDNA) DNA 1: ATATTTTGTTATACGTGTTAGAAGTTCA DNA 2: TGAACTTCTAACACGTATAACAAAATAT", "values": [{"measurement": "binding result", "setting": "AcABI5a-His [2]", "value": "binds"}]}]}
